{"source": "patent US20210388087A1", "about": "(Chugai, published 2021)", "binders": {"B1": {"name": "H183/L072 VH L100dI (antibody, name in Kabat numbering, V domains shown)", "VH": "QVQLVESGGGLVQPGRSLRLSCAASGFTFSNAWMHWVRQAPGKGLEWVAQIKDKGNAYAAYYAPSVKGRFTISRDDSKNSIYLQMNSLKTEDTAVYYCHYVHYASASTVIPAFGVDAWGQGTTVTVSS", "VL": "DIVMTQSPLSLPVTPGEPASISCQASQELVHMNRNTYLHWYQQKPGQAPRLLIYKVSNRFPGVPDRFSGSGSGTDFTLKISRVEAEDVGVYYCAQGTSVPFTFGQGTKLEIK"}, "B2": {"name": "H183/L072 VH M34Y (antibody, name in Kabat numbering, V domains shown)", "VH": "B1 VH with M34Y, I110L", "VL": "B1 VL"}, "B3": {"name": "H183/L072 VH N31V (antibody, name in Kabat numbering, V domains shown)", "VH": "B1 VH with N31V, I110L", "VL": "B1 VL"}, "B4": {"name": "H183/L072 VH M34P (antibody, name in Kabat numbering, V domains shown)", "VH": "B1 VH with M34P, I110L", "VL": "B1 VL"}, "B5": {"name": "H183/L072 VH P61L (antibody, name in Kabat numbering, V domains shown)", "VH": "B1 VH with P64L, I110L", "VL": "B1 VL"}, "B6": {"name": "H183/L072 VH P61M (antibody, name in Kabat numbering, V domains shown)", "VH": "B1 VH with P64M, I110L", "VL": "B1 VL"}, "B7": {"name": "H183/L072 VH N31P (antibody, name in Kabat numbering, V domains shown)", "VH": "B1 VH with N31P, I110L", "VL": "B1 VL"}, "B8": {"name": "H183/L072 VH N31S (antibody, name in Kabat numbering, V domains shown)", "VH": "B1 VH with N31S, I110L", "VL": "B1 VL"}, "B9": {"name": "H183/L072 VH M34I (antibody, name in Kabat numbering, V domains shown)", "VH": "B1 VH with M34I, I110L", "VL": "B1 VL"}, "B10": {"name": "H183/L072 VH P100eI (antibody, name in Kabat numbering, V domains shown)", "VH": "B1 VH with I110L, P111I", "VL": "B1 VL"}, "B11": {"name": "H183/L072 VH N31H (antibody, name in Kabat numbering, V domains shown)", "VH": "B1 VH with N31H, I110L", "VL": "B1 VL"}, "B12": {"name": "H183/L072 VH P100eL (antibody, name in Kabat numbering, V domains shown)", "VH": "B1 VH with I110L, P111L", "VL": "B1 VL"}, "B13": {"name": "H183/L072 VH N31Y (antibody, name in Kabat numbering, V domains shown)", "VH": "B1 VH with N31Y, I110L", "VL": "B1 VL"}, "B14": {"name": "H183/L072 VH N31A (antibody, name in Kabat numbering, V domains shown)", "VH": "B1 VH with N31A, I110L", "VL": "B1 VL"}, "B15": {"name": "H183/L072 VH N31Q (antibody, name in Kabat numbering, V domains shown)", "VH": "B1 VH with N31Q, I110L", "VL": "B1 VL"}, "B16": {"name": "H183/L072 VH M34H (antibody, name in Kabat numbering, V domains shown)", "VH": "B1 VH with M34H, I110L", "VL": "B1 VL"}, "B17": {"name": "H183/L072 VH Q50E (antibody, name in Kabat numbering, V domains shown)", "VH": "B1 VH with Q50E, I110L", "VL": "B1 VL"}, "B18": {"name": "H183/L072 VH N31T (antibody, name in Kabat numbering, V domains shown)", "VH": "B1 VH with N31T, I110L", "VL": "B1 VL"}, "B19": {"name": "H183/L072 VH N53Y (antibody, name in Kabat numbering, V domains shown)", "VH": "B1 VH with N56Y, I110L", "VL": "B1 VL"}, "B20": {"name": "H183/L072 VH N31G (antibody, name in Kabat numbering, V domains shown)", "VH": "B1 VH with N31G, I110L", "VL": "B1 VL"}, "B21": {"name": "H183/L072 VH M34L (antibody, name in Kabat numbering, V domains shown)", "VH": "B1 VH with M34L, I110L", "VL": "B1 VL"}, "B22": {"name": "H183/L072 VH P61I (antibody, name in Kabat numbering, V domains shown)", "VH": "B1 VH with P64I, I110L", "VL": "B1 VL"}, "B23": {"name": "H183/L072 VH M34V (antibody, name in Kabat numbering, V domains shown)", "VH": "B1 VH with M34V, I110L", "VL": "B1 VL"}, "B24": {"name": "H183/L072 VH N31I (antibody, name in Kabat numbering, V domains shown)", "VH": "B1 VH with N31I, I110L", "VL": "B1 VL"}, "B25": {"name": "H183/L072 VH Q50D (antibody, name in Kabat numbering, V domains shown)", "VH": "B1 VH with Q50D, I110L", "VL": "B1 VL"}, "B26": {"name": "H183/L072 VH N31F (antibody, name in Kabat numbering, V domains shown)", "VH": "B1 VH with N31F, I110L", "VL": "B1 VL"}, "B27": {"name": "H183/L072 VH L100dM (antibody, name in Kabat numbering, V domains shown)", "VH": "B1 VH with I110M", "VL": "B1 VL"}, "B28": {"name": "H183/L072 VH P61A (antibody, name in Kabat numbering, V domains shown)", "VH": "B1 VH with P64A, I110L", "VL": "B1 VL"}, "B29": {"name": "H183/L072 VH P100eM (antibody, name in Kabat numbering, V domains shown)", "VH": "B1 VH with I110L, P111M", "VL": "B1 VL"}, "B30": {"name": "H183/L072 VH N31W (antibody, name in Kabat numbering, V domains shown)", "VH": "B1 VH with N31W, I110L", "VL": "B1 VL"}, "B31": {"name": "H183/L072 VH M34F (antibody, name in Kabat numbering, V domains shown)", "VH": "B1 VH with M34F, I110L", "VL": "B1 VL"}, "B32": {"name": "H183/L072 VH N31L (antibody, name in Kabat numbering, V domains shown)", "VH": "B1 VH with N31L, I110L", "VL": "B1 VL"}, "B33": {"name": "H183/L072 VH P100eA (antibody, name in Kabat numbering, V domains shown)", "VH": "B1 VH with I110L, P111A", "VL": "B1 VL"}}, "note": "Residue numbers refer to the chain shown, from its start. Names and notes keep the numbering of the source.", "data": [{"molecular_target": "T1, Human CD137 ECD (human)", "T1 construct": "also called 4-1BB", "T1 sequence (chain, as listed by the source limits assumed)": "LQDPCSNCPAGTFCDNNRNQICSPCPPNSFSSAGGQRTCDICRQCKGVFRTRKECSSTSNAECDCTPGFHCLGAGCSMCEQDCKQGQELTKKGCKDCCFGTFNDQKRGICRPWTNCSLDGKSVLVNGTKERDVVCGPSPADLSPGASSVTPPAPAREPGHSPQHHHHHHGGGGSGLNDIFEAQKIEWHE", "assay": "single mutant vs template dBBDu183H", "units": {"fold change of affinity": "fold"}, "values": [{"binder": "B1", "fold change of affinity": 0}, {"binder": "B2", "fold change of affinity": 0}, {"binder": "B3", "fold change of affinity": 0.2}, {"binder": "B4", "fold change of affinity": 0.3}, {"binder": "B5", "fold change of affinity": 0.6}, {"binder": "B6", "fold change of affinity": 0.6}, {"binder": "B7", "fold change of affinity": 0.4}, {"binder": "B8", "fold change of affinity": 0.3}, {"binder": "B9", "fold change of affinity": 1.4}, {"binder": "B10", "fold change of affinity": 0}, {"binder": "B11", "fold change of affinity": 0.4}, {"binder": "B12", "fold change of affinity": 0}, {"binder": "B13", "fold change of affinity": 0}, {"binder": "B14", "fold change of affinity": 0.3}, {"binder": "B15", "fold change of affinity": 0.2}, {"binder": "B16", "fold change of affinity": 0.1}, {"binder": "B17", "fold change of affinity": 0.5}, {"binder": "B18", "fold change of affinity": 0.5}, {"binder": "B19", "fold change of affinity": 0}, {"binder": "B20", "fold change of affinity": 0.3}, {"binder": "B21", "fold change of affinity": 1.8}, {"binder": "B22", "fold change of affinity": 0.5}, {"binder": "B23", "fold change of affinity": 1}, {"binder": "B24", "fold change of affinity": 0.3}, {"binder": "B25", "fold change of affinity": 0.3}, {"binder": "B26", "fold change of affinity": 0.2}, {"binder": "B27", "fold change of affinity": 0.9}, {"binder": "B28", "fold change of affinity": 0.8}, {"binder": "B29", "fold change of affinity": 0}, {"binder": "B30", "fold change of affinity": 0.3}, {"binder": "B31", "fold change of affinity": 2.5}, {"binder": "B32", "fold change of affinity": 0.3}, {"binder": "B33", "fold change of affinity": 0.5}]}]}
